Assay results: paper PMC3553676

T1: Ku (Mycobacterium smegmatis, UniProt A0R3S7 1-318)
T1 sequence: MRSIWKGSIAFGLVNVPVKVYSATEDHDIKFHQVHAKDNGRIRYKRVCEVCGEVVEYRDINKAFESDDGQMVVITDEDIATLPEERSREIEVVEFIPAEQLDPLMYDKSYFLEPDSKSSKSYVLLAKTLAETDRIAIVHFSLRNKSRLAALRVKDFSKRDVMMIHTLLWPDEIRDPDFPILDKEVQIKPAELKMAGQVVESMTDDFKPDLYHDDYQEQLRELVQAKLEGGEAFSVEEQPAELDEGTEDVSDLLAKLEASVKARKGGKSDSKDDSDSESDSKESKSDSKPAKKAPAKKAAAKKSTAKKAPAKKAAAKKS

B1: 37 bp DNA (dsDNA)
DNA 1: CCTAGGCTACACCTACTCTTTGTAAGAATTAAGCTTC
DNA 2: GAAGCTTAATTCTTACAAAGAGTAGGTGTAGCCTAGG
B2: 21/34 nt hairpin substrate (structured_DNA)
DNA 1: GTTTTTAGTTTATTGGGCGCG
DNA 2: CGCGCCCAGCTTTCCCAGCTAATAAACTAAAAAC

How the values were obtained:
Ku [1] = biological target: T1, Ku; assay: EMSA
Ku [2] = biological target: T1, Ku; assay: EMSA; remark: listed apart in the source

| Binder | Kd (Ku [1]) | binding result (Ku [2]) |
| --- | --- | --- |
| B1 | 8.6 ± 0.5 nM |  |
| B2 |  | binds |
